The target in test [1] is T1, human CEA protein on the cell surface (human, UniProt P06731 35-685).
T1 construct: whole, on cells; also called CEACAM-5; CD66e
T1 sequence (looked up): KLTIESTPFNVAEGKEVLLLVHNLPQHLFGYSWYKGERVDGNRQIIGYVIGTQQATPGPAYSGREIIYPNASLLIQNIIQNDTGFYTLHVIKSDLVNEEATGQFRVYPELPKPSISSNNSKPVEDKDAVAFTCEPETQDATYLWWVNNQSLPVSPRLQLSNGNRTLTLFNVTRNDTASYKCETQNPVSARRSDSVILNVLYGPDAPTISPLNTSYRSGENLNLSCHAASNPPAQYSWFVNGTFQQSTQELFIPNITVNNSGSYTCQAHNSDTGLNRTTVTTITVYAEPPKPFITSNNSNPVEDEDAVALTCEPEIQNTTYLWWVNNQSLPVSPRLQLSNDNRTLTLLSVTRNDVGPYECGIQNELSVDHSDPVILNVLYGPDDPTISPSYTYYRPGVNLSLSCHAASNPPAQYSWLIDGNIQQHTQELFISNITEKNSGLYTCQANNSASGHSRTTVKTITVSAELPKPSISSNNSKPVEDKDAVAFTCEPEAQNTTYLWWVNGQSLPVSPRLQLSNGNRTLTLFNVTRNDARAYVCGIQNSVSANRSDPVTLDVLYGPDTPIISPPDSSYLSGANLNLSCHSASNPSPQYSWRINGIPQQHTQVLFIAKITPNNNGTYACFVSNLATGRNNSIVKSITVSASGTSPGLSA
Kind of test: FACS, MKN45 cells. The protocol: (§1) In order to detect the binding of the antibody to the CEA protein on the cell surface, the binding activity of the antibody was determined by FACS using cells expressing CEA on the cell surface. Cells were harvested and centrifuged at 400 g at 4° C. for 5 min. Pre-cooled PBS containing FBS at final concentration 10% was added, and the mixture was centrifuged at 400 g at 4° C. for 5 min; the procedures were repeated twice. The cells were seeded into a 96-well plate at 10⁵ cells/well, and 100 μL of gradient diluted antibody solution was added to each well. The plate was incubated at 4° C. for 60 min and centrifuged, and the supernatant was removed. 250 μL of pre-cooled PBS containing FBS at final concentration 10% was added to each well to resuspend the cells, and the suspension was centrifuged at 400 g at 4° C. for 5 min, followed by the removal of the supernatant; the procedures were repeated twice. 50 μL of 1:200 diluted secondary antibody Alexa Fluor@488 goat anti-human IgG (H+L) (Lifetechologies, Cat #A11013) was added. […] 250 μL of pre-cooled PBS containing FBS at final concentration 10% was added to each cell to resuspend the cells, and the suspension was centrifuged at 400 g at 4° C. for 5 min; the procedures were repeated twice. 100 μL of pre-cooled PBS was added to each well to resuspend the cells. The plate was analyzed by a flow cytometer (BD, FACSverse) for fluorescence signal values.
(A flow cytometer gives signals particle by particle.)

For test [2], the target named is T2, monkey CEA expressed on CHO cell surface (cynomolgus monkey).
T2 construct: also called cynoCEA-CHO; monkey CEA proteins on the cell surface
T2 chain: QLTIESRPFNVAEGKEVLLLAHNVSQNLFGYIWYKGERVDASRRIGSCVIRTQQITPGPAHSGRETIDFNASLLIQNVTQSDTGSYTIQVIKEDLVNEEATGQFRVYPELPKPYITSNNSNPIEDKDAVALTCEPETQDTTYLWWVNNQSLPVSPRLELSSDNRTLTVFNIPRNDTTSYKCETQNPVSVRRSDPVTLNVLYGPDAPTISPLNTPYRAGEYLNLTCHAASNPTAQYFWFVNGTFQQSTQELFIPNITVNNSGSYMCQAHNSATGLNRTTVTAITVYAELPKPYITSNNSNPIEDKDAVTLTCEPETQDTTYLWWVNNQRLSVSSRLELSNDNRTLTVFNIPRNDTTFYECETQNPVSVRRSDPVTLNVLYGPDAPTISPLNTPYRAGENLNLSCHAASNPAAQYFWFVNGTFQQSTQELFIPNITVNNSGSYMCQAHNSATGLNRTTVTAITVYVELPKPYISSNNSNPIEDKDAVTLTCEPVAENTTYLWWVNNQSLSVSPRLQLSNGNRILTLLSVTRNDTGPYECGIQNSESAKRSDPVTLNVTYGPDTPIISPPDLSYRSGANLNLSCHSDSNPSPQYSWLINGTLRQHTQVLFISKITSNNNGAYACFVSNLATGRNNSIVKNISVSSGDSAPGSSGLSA
Kind of test: FACS, cynoCEA-CHO cells. How it is done:
as §1

B1: Hu103-3 (antibody, human IgG1, lambda)
heavy: not shown
light: ELVLTQSPSASASLGASVKLTCTLSSQHSTYTIEWYQQQPEKGPRYVMELKKDGSHSTGDGIPDRFSGSSSGAERYLTISSLQSEDEADYYCGVGNTIKEQFVYVFGGGTKLTVLGQPKANPTVTLFPPSSEELQANKATLVCLISDFYPGAVTVAWKADGSPVKAGVETTKPSKQSNNKYAASSYLSLTPEQWKSHRSYSCQVTHEGSTVEKTVAPTECS
Take B1: the half-maximal effective concentration (EC50) (as a rule, the concentration giving half of the maximal effect) in test [1] came out at 1.91 nM; in test [2] it was 1.18 nM.

B2: Hu103-19 (antibody, human IgG1, lambda)
heavy: not shown
light: ELVLTQSPSASASLGASVKLTCTLSSQHSTYTIEWYQQQPEKGPRYVMELKKDGSHSTGDGIPDRFSGSSSGAERYLTISSLQSEDEADYYCGVGNTIKEQFVYVFGGGTKLTVLGQPKANPTVTLFPPSSEELQANKATLVCLISDFYPGAVTVAWKADGSPVKAGVETTKPSKQSNNKYAASSYLSLTPEQWKSHRSYSCQVTHEGSTVEKTVAPTECS
For the molecule B2, the values for the concentration giving a half-maximal response (EC50) in test [1] and in test [2] were 2.42 nM and 0.96 nM, respectively.

B3: Hu103-4 (antibody, human IgG1, lambda)
heavy: not shown
light: ELVVTQSPSASASLGASVKLTCTLSSQHSTYTIEWYQQQPEKGPRYVMELKKDGSHSTGDGIPDRFSGSSSGAERYLTISSLQSEDEADYYCGVGNTIKEQFVYVFGGGTKLTVLGQPKANPTVTLFPPSSEELQANKATLVCLISDFYPGAVTVAWKADGSPVKAGVETTKPSKQSNNKYAASSYLSLTPEQWKSHRSYSCQVTHEGSTVEKTVAPTECS
On to B3, for which the results for the EC50 in test [1] and in test [2] were 2.62 nM and 1.32 nM, respectively.

B4: Hu103-9 (antibody, human IgG1, lambda)
heavy: not shown
light: ELVLTQSPSASASLGASVKLTCTLSSQHSTYTIEWHQQQPEKGPRYLMELKKDGSHSTGDGIPDRFSGSSSGAERYLTISSLQSEDEADYYCGVGNTIKEQFVYVFGGGTKLTVLGQPKANPTVTLFPPSSEELQANKATLVCLISDFYPGAVTVAWKADGSPVKAGVETTKPSKQSNNKYAASSYLSLTPEQWKSHRSYSCQVTHEGSTVEKTVAPTECS
Consider B4, for which the 50% effective concentration (EC50) in test [1] came out at 2.95 nM; in test [2] it was 1.61 nM.

B5: Hu103-6 (antibody, human IgG1, lambda)
heavy: not shown
light: ELVVTQSPSASASLGASVKLTCTLSSQHSTYTIEWYQQQPEKPPRYVMELKKDGSHSTGDGIPDRFSGSSSGAERYLTISSLQSEDEADYICGVGNTIKEQFVYVFGGGTKLTVLGQPKANPTVTLFPPSSEELQANKATLVCLISDFYPGAVTVAWKADGSPVKAGVETTKPSKQSNNKYAASSYLSLTPEQWKSHRSYSCQVTHEGSTVEKTVAPTECS
On to B5, for which the half-maximal effective concentration (EC50) in test [1] came to 1.27 nM; in test [2] it was 1.56 nM.

B6: Hu103-7 (antibody, human IgG1, lambda, V domains shown)
VH: EVQLVQSGSELKKPGASVKVSCKASGYTFTTYGVIWVRQAPGQGLEWMGWINTYSGVPTYADDFKGRFVFSLDTSVSTAYLQISSLKAEDTAVYYCARKKTLTTVTPWFAYWGQGTLVTVSS
VL: ELVVTQSPSASASLGASVKLTCTLSSQHSTYTIEWYQQQPEKPPRYVMELKKDGSHSTGDGIPDRFSGSSSGADRYLTISSLQSEDEADYICGVGNTIKEQFVYVFGGGTKLTVLG
As to B6, the half-maximal effective concentration (EC50) in test [1] was 2.2 nM; in test [2], 1.62 nM.

B7: Hu103-17 (antibody, human IgG1, lambda)
heavy: not shown
light: ELVLTQSPSASASLGASVKLTCTLSSQHSTYTIEWHQQQPEKGPRYLMELKKDGSHSTGDGIPDRFSGSSSGAERYLTISSLQSEDEADYYCGVGNTIKEQFVYVFGGGTKLTVLGQPKANPTVTLFPPSSEELQANKATLVCLISDFYPGAVTVAWKADGSPVKAGVETTKPSKQSNNKYAASSYLSLTPEQWKSHRSYSCQVTHEGSTVEKTVAPTECS
Regarding B7, the concentration giving a half-maximal response (EC50) was 2.92 nM in test [1] and 1.52 nM in test [2].

B8: Hu103-12 (antibody, human IgG1, lambda)
heavy: not shown
light: ELVVTQSPSASASLGASVKLTCTLSSQHSTYTIEWYQQQPEKGPRYVMELKKDGSHSTGDGIPDRFSGSSSGAERYLTISSLQSEDEADYYCGVGNTIKEQFVYVFGGGTKLTVLGQPKANPTVTLFPPSSEELQANKATLVCLISDFYPGAVTVAWKADGSPVKAGVETTKPSKQSNNKYAASSYLSLTPEQWKSHRSYSCQVTHEGSTVEKTVAPTECS
Turning to B8, the concentration giving a half-maximal response (EC50) in test [1] was found to be 2.38 nM; in test [2], 1.08 nM.

B9: Hu103-18 (antibody, human IgG1, lambda)
heavy: not shown
light: ELVLTQSPSASASLGASVKLTCTLSSQHSTYTIEWYQQQPEKGPRYLMELKKDGSHSTGDGIPDRFSGSSSGAERYLTISSLQSEDEADYYCGVGNTIKEQFVYVFGGGTKLTVLGQPKANPTVTLFPPSSEELQANKATLVCLISDFYPGAVTVAWKADGSPVKAGVETTKPSKQSNNKYAASSYLSLTPEQWKSHRSYSCQVTHEGSTVEKTVAPTECS
As to B9, the values for the EC50 in test [1] and in test [2] were 2.75 nM and 0.89 nM, respectively.

B10: Hu103-5 (antibody, human IgG1, lambda)
heavy: not shown
light: ELVLTQSPSASASLGASVKLTCTLSSQHSTYTIEWYQQQPEKPPRYVMELKKDGSHSTGDGIPDRFSGSSSGAERYLTISSLQSEDEADYICGVGNTIKEQFVYVFGGGTKLTVLGQPKANPTVTLFPPSSEELQANKATLVCLISDFYPGAVTVAWKADGSPVKAGVETTKPSKQSNNKYAASSYLSLTPEQWKSHRSYSCQVTHEGSTVEKTVAPTECS
For the molecule B10, the EC50 in test [1] is 2.38 nM; in test [2] it was 1.47 nM.

B11: Hu103-14 (antibody, human IgG1, lambda)
heavy: not shown
light: ELVVTQSPSASASLGASVKLTCTLSSQHSTYTIEWYQQQPEKPPRYVMELKKDGSHSTGDGIPDRFSGSSSGAERYLTISSLQSEDEADYICGVGNTIKEQFVYVFGGGTKLTVLGQPKANPTVTLFPPSSEELQANKATLVCLISDFYPGAVTVAWKADGSPVKAGVETTKPSKQSNNKYAASSYLSLTPEQWKSHRSYSCQVTHEGSTVEKTVAPTECS
Turning to B11, the EC50 in test [1] was determined as 2.41 nM; in test [2] it was 1.37 nM.

B12: Hu103-15 (antibody, human IgG1, lambda)
heavy: not shown
light: ELVVTQSPSASASLGASVKLTCTLSSQHSTYTIEWYQQQPEKPPRYVMELKKDGSHSTGDGIPDRFSGSSSGADRYLTISSLQSEDEADYICGVGNTIKEQFVYVFGGGTKLTVLGQPKANPTVTLFPPSSEELQANKATLVCLISDFYPGAVTVAWKADGSPVKAGVETTKPSKQSNNKYAASSYLSLTPEQWKSHRSYSCQVTHEGSTVEKTVAPTECS
Turning to B12, the values for the EC50 in test [1] and in test [2] were 2.13 nM and 1.36 nM, respectively.

B13: Hu103-10 (antibody, human IgG1, lambda)
heavy: not shown
light: ELVLTQSPSASASLGASVKLTCTLSSQHSTYTIEWYQQQPEKGPRYLMELKKDGSHSTGDGIPDRFSGSSSGAERYLTISSLQSEDEADYYCGVGNTIKEQFVYVFGGGTKLTVLGQPKANPTVTLFPPSSEELQANKATLVCLISDFYPGAVTVAWKADGSPVKAGVETTKPSKQSNNKYAASSYLSLTPEQWKSHRSYSCQVTHEGSTVEKTVAPTECS
Regarding B13, the EC50 in test [1] came to 2.23 nM; in test [2], 1 nM.

B14: Hu103-13 (antibody, human IgG1, lambda)
heavy: not shown
light: ELVLTQSPSASASLGASVKLTCTLSSQHSTYTIEWYQQQPEKPPRYVMELKKDGSHSTGDGIPDRFSGSSSGAERYLTISSLQSEDEADYICGVGNTIKEQFVYVFGGGTKLTVLGQPKANPTVTLFPPSSEELQANKATLVCLISDFYPGAVTVAWKADGSPVKAGVETTKPSKQSNNKYAASSYLSLTPEQWKSHRSYSCQVTHEGSTVEKTVAPTECS
On to B14, for which the half-maximal effective concentration (EC50) in test [1] stood at 2.53 nM; in test [2], 1.01 nM.
